The target of test [1] is T1, Human CD137 (human, UniProt Q07011 24-255).
T1 construct: also called hCD137 wt; 4-1BB
The test can be described thus: flow cytometry on FreeStyle HEK293 cells expressing CD137 (alanine scanning), 3 µg/mL A488-labeled antibody. For orientation: Flow cytometry measures light scatter and fluorescence of single cells or particles in a stream.
Protocol: The wild type CD137 and alanine mutants were expressed individually in FreeStyle HEK293 cells according to the manufacturer's instructions (Thermo Scientific). One day post transfection, the cells were harvested. […] Cells were incubated at room temperature for 30 min. Subsequently, cells were washed twice by centrifugation using 150-200 μL FACS buffer. Cells were suspended in 30 μL FACS buffer and stored at 4° C. until analysis by flow cytometry using an iQue screener.

In test [2] the target is T1, Human CD137. As to the kind of experiment: cell-based or functional assay.
In another test the target is T2, Human PD-L1 (human, UniProt Q9NZQ7 19-290).
T2 construct: Amino acids 1-18 are stated to be a predicted signal peptide; also called CD274; B7H1
As to the kind of experiment: flow cytometry on MDA-MB-231 tumor cells.

In test [3] the target is T1, Human CD137. The test can be described thus: cell-based or functional assay. The source holds these as a separate data set.

Positions count from the first letter of the chain named. Names and notes keep the numbering of the source.

Consider six molecules from US20200165349A1 (Genmab, published 2020).

T2 sequence (Q9NZQ7 19-290): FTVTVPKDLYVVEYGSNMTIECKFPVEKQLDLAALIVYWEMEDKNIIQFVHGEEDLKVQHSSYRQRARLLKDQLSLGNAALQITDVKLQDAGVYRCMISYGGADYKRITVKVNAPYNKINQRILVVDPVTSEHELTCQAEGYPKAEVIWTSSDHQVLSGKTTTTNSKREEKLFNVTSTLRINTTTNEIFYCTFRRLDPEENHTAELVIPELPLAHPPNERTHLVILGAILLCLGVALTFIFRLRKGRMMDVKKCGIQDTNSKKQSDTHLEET
Protocol for Human PD-L1: After washing twice in FACS buffer, cells were incubated with secondary antibody at 4° C. for 30 min. […] Next, cells were washed twice in FACS buffer, re-suspended in 20 μL FACS buffer and analyzed on an iQue screener (Intellicyt Corporation, USA). Binding curves were analyzed using non-linear regression (sigmoidal dose-response with variable slope) using GraphPad Prism V75.04 software (GraphPad Software, San Diego, Calif., USA).

B1: b12-FEAL×CD137-009-FEAR-A488 (bispecific antibody, not shown: large carriers)
heavy 1: QVQLVQSGAEVKKPGASVKVSCQASGYRFSNFVIHWVRQAPGQRFEWMGWINPYNGNKEFSAKFQDRVTFTADTSANTAYMELRSLRSADTAVYYCARVGPYSWDDSPQDNYYMDVWGKGTTVIVSSASTKGPSVFPLAPSSKSTSGGTAALGCLVKDYFPEPVTVSWNSGALTSGVHTFPAVLQSSGLYSLSSVVTVPSSSLGTQTYICNVNHKPSNTKVDKRVEPKSCDKTHTCPPCPAPEFEGGPSVFLFPPKPKDTLMISRTPEVTCVVVAVSHEDPEVKFNWYVDGVEVHNAKTKPREEQYNSTYRVVSVLTVLHQDWLNGKEYKCKVSNKALPAPIEKTISKAKGQPREPQVYTLPPSREEMTKNQVSLTCLVKGFYPSDIAVEWESNGQPENNYKTTPPVLDSDGSFLLYSKLTVDKSRWQQGNVFSCSVMHEALHNHYTQKSLSLSPGK
light 1: EIVLTQSPGTLSLSPGERATFSCRSSHSIRSRRVAWYQHKPGQAPRLVIHGVSNRASGISDRFSGSGSGTDFTLTITRVEPEDFALYYCQVYGASSYTFGQGTKLERK
heavy 2: QSLEESGGRLVTPGTPLTLTCTVSGFSLNDYWMSWVRQAPGKGLEWIGYIDVGGSLYYASWAKGRFTISRTSTTVDLKMTSLTTEDTATYFCARGGLTYGFDLWGPGTLVTVSSASTKGPSVFPLAPSSKSTSGGTAALGCLVKDYFPEPVTVSWNSGALTSGVHTFPAVLQSSGLYSLSSVVTVPSSSLGTQTYICNVNHKPSNTKVDKRVEPKSCDKTHTCPPCPAPEFEGGPSVFLFPPKPKDTLMISRTPEVTCVVVAVSHEDPEVKFNWYVDGVEVHNAKTKPREEQYNSTYRVVSVLTVLHQDWLNGKEYKCKVSNKALPAPIEKTISKAKGQPREPQVYTLPPSREEMTKNQVSLTCLVKGFYPSDIAVEWESNGQPENNYKTTPPVLDSDGSFFLYSRLTVDKSRWQQGNVFSCSVMHEALHNHYTQKSLSLSPGK
light 2: DIVMTQTPASVSEPVGGTVTINCQASEDISSYLAWYQQKPGQRPKRLIYGASDLASGVPSRFSASGSGTEYALTISDLESADAATYYCHYYATISGLGVAFGGGTEVVVKRTVAAPSVFIFPPSDEQLKSGTASVVCLLNNFYPREAKVQWKVDNALQSGNSQESVTEQDSKDSTYSLSSTLTLSKADYEKHKVYACEVTHQGLSSPVTKSFNRGEC
In the case of B1, the binding result in the test with Human CD137 [1] was “binds”.

B2: PD-L1-547-FEAL×CD137-009-HC7LC2-FEAR (bispecific antibody, human IgG1, kappa, lambda)
heavy 1: EVQLLEPGGGLVQPGGSLRLSCEASGSTFSTYAMSWVRQAPGKGLEWVSGFSGSGGFTFYADSVRGRFTISRDSSKNTLFLQMSSLRAEDTAVYYCAIPARGYNYGSFQHWGQGTLVTVSSASTKGPSVFPLAPSSKSTSGGTAALGCLVKDYFPEPVTVSWNSGALTSGVHTFPAVLQSSGLYSLSSVVTVPSSSLGTQTYICNVNHKPSNTKVDKRVEPKSCDKTHTCPPCPAPEFEGGPSVFLFPPKPKDTLMISRTPEVTCVVVAVSHEDPEVKFNWYVDGVEVHNAKTKPREEQYNSTYRVVSVLTVLHQDWLNGKEYKCKVSNKALPAPIEKTISKAKGQPREPQVYTLPPSREEMTKNQVSLTCLVKGFYPSDIAVEWESNGQPENNYKTTPPVLDSDGSFLLYSKLTVDKSRWQQGNVFSCSVMHEALHNHYTQKSLSLSPGK
light 1: SYVLTQPPSVSVAPGQTARITCGGNNIGSKSVHWYQQKPGQAPVLVVYDDNDRPSGLPERFSGSNSGNTATLTISRVEAGDEADYYCQVWDSSSDHVVFGGGTKLTVLGQPKAAPSVTLFPPSSEELQANKATLVCLISDFYPGAVTVAWKADSSPVKAGVETTTPSKQSNNKYAASSYLSLTPEQWKSHRSYSCQVTHEGSTVEKTVAPTECS
heavy 2: EVQLVESGGGLVQPGRSLRLSCTASGFSLNDYWMSWVRQAPGKGLEWVGYIDVGGSLYYAASVKGRFTISRDDSKSIAYLQMNSLKTEDTAVYYCARGGLTYGFDLWGQGTLVTVSSASTKGPSVFPLAPSSKSTSGGTAALGCLVKDYFPEPVTVSWNSGALTSGVHTFPAVLQSSGLYSLSSVVTVPSSSLGTQTYICNVNHKPSNTKVDKRVEPKSCDKTHTCPPCPAPEFEGGPSVFLFPPKPKDTLMISRTPEVTCVVVAVSHEDPEVKFNWYVDGVEVHNAKTKPREEQYNSTYRVVSVLTVLHQDWLNGKEYKCKVSNKALPAPIEKTISKAKGQPREPQVYTLPPSREEMTKNQVSLTCLVKGFYPSDIAVEWESNGQPENNYKTTPPVLDSDGSFFLYSRLTVDKSRWQQGNVFSCSVMHEALHNHYTQKSLSLSPGK
light 2: DIVMTQSPSSLSASVGDRVTITCQASEDISSYLAWYQQKPGKAPKRLIYGASDLASGVPSRFSASGSGTDYTFTISSLQPEDIATYYCHYYATISGLGVAFGGGTKVEIKRTVAAPSVFIFPPSDEQLKSGTASVVCLLNNFYPREAKVQWKVDNALQSGNSQESVTEQDSKDSTYSLSSTLTLSKADYEKHKVYACEVTHQGLSSPVTKSFNRGEC
For the molecule B2, in the test with Human CD137 [2], the “EC50 value, CD8+ T-cell expansion, donor 1, 0.03 µg/ml anti-CD3” value turned out to be 12.2 ng/mL and the “EC50 value, CD8+ T-cell expansion, donor 2, 0.09 µg/ml anti-CD3” value turned out to be 6.89 ng/mL.

B3: b12-FEAL×PD-L1-547-FEAR (bispecific antibody, not shown: large carriers)
heavy 1: B1 heavy 1
light 1: B1 light 1
heavy 2: B2 heavy 1 with L409F, K413R
light 2: B2 light 1
notes: also called monovalent PD-L1 antibody; monovalent PD-L1-control antibody
As to B3, the binding result with Human PD-L1 is given as “binds”.

B4: CD137-009-FEAL×PD-L1-547-FEAR (bispecific antibody, human IgG1, kappa, lambda)
heavy 1: B1 heavy 2 with F402L, R406K
light 1: B1 light 2
heavy 2: B2 heavy 1 with L409F, K413R
light 2: B2 light 1
B4: in the test with Human CD137 [3], the “EC50 of the induction of antigen-specific T cell proliferation, '% divided cells'” value came to 3.49 ng/mL and the “EC50 of the induction of antigen-specific T cell proliferation, 'proliferation index'” value came to 5.39 ng/mL.

B5: CD137-005-FEAR-A488 (antibody, V domains shown)
VH: QSVEESGGRLVTPGTPLTLTCTASGFTISDFHVTWVRQAPGKGLEWIGTIITSASTTAYATWARGRFTISKSSTTVNLKIVSPTTEDTATYFCARSTYTDTSGYYFDFWGQGTLVTVSS
VL: AQVLTQTASPVSAAVGGTVIINCQSSQSIYNGNRLSWYQQKPGQPPKLLIYSASTLASGVSSRFKGSGSGTQFTLAISDVQSDDAATYYCLGSYDCDSADCFAFGGGTEVVVER
notes: Conjugated with Alexa Fluor 488
Consider B5, for which, in the test with Human CD137 [1], the binding result is given as “binds”.

B6: PD-L1-547-FEAR (antibody, human IgG1, lambda, V domains shown)
VH: EVQLLEPGGGLVQPGGSLRLSCEASGSTFSTYAMSWVRQAPGKGLEWVSGFSGSGGFTFYADSVRGRFTISRDSSKNTLFLQMSSLRAEDTAVYYCAIPARGYNYGSFQHWGQGTLVTVSS
VL: SYVLTQPPSVSVAPGQTARITCGGNNIGSKSVHWYQQKPGQAPVLVVYDDNDRPSGLPERFSGSNSGNTATLTISRVEAGDEADYYCQVWDSSSDHVVFGGGTKLTVLG
notes: Human IgG1 lambda with L234F, L235E, D265A and K409R
For B6, the binding result in the test with Human PD-L1 was “binds”.
